A protein production outcome set (Wang et al. 2014)

Assay: label from the status in PepcDB records

For “MEEMGSRSDTIMVASLNRETKEIKLVSVYRDTLLQLSDGTYNKANAAYAYGGEEEAVAMLNKNLDLNIEHYVSVDFSVLVHVIDALGGIDINVEEAENGMDIIPYLNNYVVEVIKNTGVDSAPFTQLGQQHLNGVQATAYARLRYGGGDDYKRTERQRQVLEQIAIKAQKAKLSTINKIIDKVFDNVKTNFTLTETIAYAKDVKSYIFGETQGFPYESTTADLDVGNSVVATDLASDVTKLHQFLFGENDYTPSSTVQSISEDISNSTYDTGESYDTEYDEYGYSQDYSGYDSGYTDNSYGTGGYQDSGYGDGSSGNGYTEDTGGDYVPPSDGGGTDSGSSDSNSQIPDTGTGDSGDTGGESLELEHHHHHH”, the protein production was “not failed”.

In the case of “MAESPTEEAATATAGAGAAGPGSSGVAGVVGVSGSGGGFGPPFLPDVWAAAAAAGGAGGPGSGLAPLPGLPPSAAAHGAALLSHWDPTLSSDWDGERTAPQCLLRIKRDIMSIYKEPPPGMFVVPDTVDMTKIHALITGPFDTPYEGGFFLFVFRCPPDYPIHPPRVKLMTTGNNTVRFNPNFYRNGKVCLSILGTWTGPAWSPAQSISSVLISIQSLMTENPYHNEPGFEQERHPGDSKNYNECIRHETIRVAVCDMMEGKCPCPEPLRGVMEKSFLEYYDFYEVACKDRLHLQGQTMQDPFGEKRGHFDYQSLLMRLGLIRQKVLERLHNENAEMDSDSSSSGTETDLHGSLRV”, the protein production is reported as “failed”.

In the case of “MTTILTVFTHAGGAGKTSIAGNIAHEFAQRGQHVLLIDGDPQSNLTTNMGVQDAELHETLFDVLSGDAPLPAPRHVHGFDLIPAVIDLAEVEPSIPGRVGGILALRDALQKESGRWDTVIIDSPPSLGQLAAACALAADALVVPIMTRSKGLNALRGLNRVMPQYHRLRPDLHVAAYVPTMCKSNRKEDSELLGIVREDLPHVTSPIVERGAVWNGAAEKGLPVTVFAPRSKEAEEIRKITSDLVEFLQRNAPERGER”, the protein production is reported as “failed”.

For “MGIKNDLEIRLQKLQQQGNFKNYLEQYPTDASTAAYFLIEIYNDGNIGGRSVIDAGTGNGILACGSYLLGAESVTAFDIDPDAIETAKRNCGGVNFMVADVSEISGKYDTWIMNPPFGSVVKHSDRAFIDKAFETSMWIYSIGNAKARDFLRREFSARGDVFREEKVYITVPRIYRHHSYDRARIEAVIFGVRNHSF”, the protein production was “not failed”.

With “MFITFEGIDGSGKTTQSHLLAEYLSEIYGVNNVVLTREPGGTLLNESVRNLLFKAQGLDSLSELLFFIAMRREHFVKIIKPSLMQKKIVICDRFIDSTIAYQGYGQGIDCSLIDQLNDLVIDVYPDITFIIDVDINESLSRSCKNGYEFADMEFYYRVRDGFYDIAKKNPHRCHVITDKSETYDIDDINFVHLEVIKVLQMV” the protein production was “not failed”.

In the case of “MNYRNKAFLKYEEDYFIERIIKALKDYEEIIIISNNPEEYKEFGLKVFKDIYPSQGPLSGIHSALNHIKNDYCLVVACDMPFINKDVVNYLGNIKEDYEILIPKFQERLQPLCAIYKKSCKDIMEKELINNSNKLIKTCFKFSMKVVEEFPFIEKVHKKEIKNFYNINTVDEYEDLIKKKEILEHHHHHH”, the protein production is reported as “failed”.

In the case of “MPSLPDRRRWLLDGARDTVPMMVGAAPFGLIFGTLAIAAGLSPAATAAMSLLVFAGSSQFIAVSLVSAGAALPVIWLTTFVVNLRHALYSATLLPYARPWPLAWRWPLAFWLTDETFAVVEHRFRSLGAEGGQWYWLGSSLSMYLNWQLWTLAGVALGRSVPGLDRLGLDFAMVATFAAIVAPQLKKRPTLAAALAAGAVALLARGLPYKLDLMLAALAGVAAGMMVERGQKREAA”, the protein production is reported as “failed”.

With “MTESATASRSWHLQATIRRLVLTAFVAGQTGLASWFLLQVLPYHGGNVVEWLIVAVFAVLYLWIAFGFWIAVYGFLLRLLGGDRASLLKRHTPNELAATPLSKTAIVMPLYHEPVSWTLKGLKAIYLDLARSGRLDDFDFYILSDSQDPDVWLQEQQVWLKLVEELGAHGRLFYRRRRVNLNYKSGNVADFLRRWGSQYQYMVVLDADSLLAGDTIRTMVQVMNREPQVGILQTAPTIINARSAFARIQQFANRLYSPLFATGLAAIQMGDAAFWGHNAVIRVAPFMAHCGLPKLKGAGIWQGPIMSHDFVEAAFLGRAGYEVWLEPALGASYEESPPTLDDELARDQRWSKGNLQHAALMLFSPRLRLAHRFAFLNGIMAYASSPLWLLFLVLTTIAAVQLTIAPIDYFPDGRESPFPLWPEWRPTWAITLVVSTMALLFLPKFLAIVDVVAHRTLSGFGGFFRLLCSVLLEIVVSVLLAPIRMLAHSHSVVSALLNVRLSWAGQNRTEETGWREAAVRHLPGLIIGSAWSAFAWTLDPMFFLWSLPVSIPLALAAPTTVWLSRSSSGESLSRRGLLLTPEERTRMPLLDDARGFREEAESEVALTPVEQAVLIPAVNRLHRQLAGRGAKGLKKEVIEGELDACVSRGYRGIEKGRLSLLLEDPQALTALHRRAWSAPSDSFWGQRVRNLVLHAQGLQDL” the protein production was “failed”.

With “MSFRKVEKKPTEMGRNMTHEKSDSDSDNEGAPMTVGGYTEFVARSDSDWDEPVYSGKARSNYNLTGTAKGTGPINSFSRKHFPNY” the protein production was “failed”.

For “MDLFPEEIYVFTPDGRIIELPMGATAIDFAYAVHTDVGNSCVGVKVDRKPYPMSRPIDSGQTIEVITSASARPNATWLEHHHHHH”, the protein production was “failed”.

In the case of “MKEIVTIENVSFNYHNRAVFKDFNLSIQEGDFLCVLGESGSGKSTLLGLILGLLKPSLGSVKIFNETLSNNAFLRQKIGYIAQGNSLFSHLNAMQNMTFCLNLQGINKQAAQKEAKALALKMGLDESLMDKFPNELSGGQAQRVGIIRGIIHRPELILLDEPFSALDSFNRKNLQDLIKEIHQNSHATFIMVTHDESEAQKLATKTLEIKALKQEQ”, the protein production is reported as “failed”.

In the case of “MHLGSTFYDETELRSLPFRHLGANVKIKRTAGLFFVENISIMDDARIDDFTIIVASREHVEIGCNVHIASQCYISGSDGFVMEDFSGLAPGVKIYTSSDDYTGEKMTNPTLPRHLIGGPAGKVVLRKHVIIGSNSVVLPKVTIEEGSSVGSLSLVNKSLPAWGVYAGIPVRRLRDRSQNILILEKELGASRA”, the protein production is reported as “failed”.

With “SPLPVALQTRLAKRGILKHLEPEPEEEIIAEDYDDDPVDYEATRLEGLPPSWYKVFDPSCGLPYYWNADTDLVSWLSPHDPNSVVTKSAKKLRSSNADAEEKLDRSHDKSDRGHDKSDRSHEKLDRGHDKSDRGHDKSDRDRERGYDKVDRERERDRERDRDRGYDKADREEGKERRHHRREELAPYPKSKKAVSRKDEELDPMDPSSYSDAPRGTWSTGLPKRNEAKTGADTTAAGPLFQQRPYPSPGAVLRANAEASRTKQQD” the protein production was “not failed”.

With “MIKGTGHMIVNIANDRGMSIDSIRKTIKESVLIAYKKYFGSNENAFIKFDDDTGDLSVYAKKKIVKEVKDSLLEILEKDISKENIVEGDYAYIEINPKVFDRLSIQVAKQRTKNDLQGIEDNEILSEFKSKLNKVVIGYVQQNRNGDLYVNLGNTDGIIPKKYQSPREVYNLNDKIRVLVYNVKKGKNGIEVILSRTHPKFIEELLALEIPEIEEGIIKIHKIVRDPGYRIKVAVYSEKEEIDPVGPCIGQKGVRIQSIIKELEGEKIDIIPYSKDIKEFIKDSLTPSKIEHVYILDEDLHKALVVVSDDQLSLAIGKMGQNVRLANRLLDWAIDVKTSSQFAEMKANSEFKQETLEMFDKVMQDVVEEEQFEEISKISDLKLLDPSVISNLSKEGFDDINNFLQADEGVLFNLGVSYEKQEEINKILKEGMIIIANDNDESMEKVEEDEELLCPECGVVINENMTSCPGCKIGLSFEFEEE” the protein production was “failed”.

With “MKLDDLNLFRLVVENGSYTATSRKTMIPVATITRRIQALEDSVNLRLLNRHARKLSLTEAGERFYHECSPLLQRLTSTAEEITDDCRGASGKIKISAPYNLTKRMMMPMFNDFMKKYPDINIELTTENNADQLDPTEWDVIFRVGPQRDSSLIARKIGEVKDILVASQDYLAANPAPNHAEELSNHSLLKGYPLIKWTLINSKGESVVNVERGRFQANALNVVRSACSEGLGITLMPDVMIKEYIESGELLRVLPDWSANPRDIYMLYNHKDHLPEKVRLFIDFVIAYNIH” the protein production was “failed”.

For “MTIQLTVPTIACEACAEAVTKAVQNEDAQATVQVDLTSKKVTITSALGEEQLRTAIASAGHEVE”, the protein production was “not failed”.

For “MQDLTSAAAYYHQSMMMTTAKQNQPELPEQEQLKCPRCDSPNTKFCYYNNYNLSQPRHFCKNCRRYWTKGGALRNIPVGGGTRKSNKRSGSSPSSNLKNQTVAEKPDHHGSGSEEKEERVSGQEMNPTRMLYGLPVGDPNGASFSSLLASNMQMGGLVYESGSRWLPGMDLGLGSVRRSDDTWTDLAMNRMEKN”, the protein production was “failed”.

With “MLKDQANQLEFPRDFLGISLADQPNKYYFIIRTQRIVLEADSSIQLIMEKLQSYKSKVALYFDGFQYQLGDFRLRVGKVVPTHSENVRGIVMEVEYLPISSMEKAQKVMEEFLEIWNEALAKRSLPGKFVNIDLNFGEFGLGDIYTPQHTAVRYALVMAHMIATVQAVRG” the protein production was “failed”.

In the case of “LRSNRVTQHPPLQLSLPVHLPDDETFTSYYPAAGNDELIGALKSAASGDGVQAIYLWGPVKSGRTHLIHAACARANELERRSFYIPLGIHASISTALLEGLEQFDLICIDDVDAVAGHPLWEEAIFDLYNRVAEQKRGSLIVSASASPMEAGFVLPDLVSRMHWGLTYQLQPMMDDEKLAALQRRAAMRGLQLPEDVGRFLLNRMARDLRTLFDVLDRLDKASMVHQRKLTIPFVKEMLRL”, the protein production is reported as “not failed”.

For “MRFDKSCQARAPSAPDGPGVLRFTIFRGEAKKRKAAVSVAGRFCAVACFLRLGSAGLSRCPCYFSPMLERRIVVAVPARDEGAGVVATLRALAAQEGAPPFQTLLLVNNSRDDTAAQARAFARQMPGFRLQVEEVALPPREANVVGARRAALDWAAALAGSDGIIVSTDADTQAAPDWLAALVQPLCANRAVQASAGRILLRATERAALPEPVRRTYLLDTGYRDAASRLRARVLPDPFDPAPRHWQHFGASLALRVSAYRAVGGVPQVPCLEDLALVRALARADLPLRHTPRARVYTSARLCGRVPVGLSTQLGEWARGPQHWRVPGGAEVLRLAQAEAALRRSWQARRLAPKLTAQWLTSEAALGAALHAPRWGLALERAHEVREAEGRWQRTFAPIPVWDALQEVRALLSTLPEERPLTAEVCAP”, the protein production was “failed”.

For “MMELIVAQAAASAAELPFLLLQAAAVVGMVSMLMLLQRHIAFDDVRYKIYYGVVFGATGFLLTLLVSEFIQLPSKPYIRSDLLFLAGVVGSWQGGLISLALISAGRFLFGGPALFGAAFLDMSVISAFGIAIYGWMRRRRLTELGMREIAGVFAIRIFAALFAICLTYGLGMVGQDVFLSNVGRRIVGATVGLPMIACLFLLLRSEARAREAVKKREVAARTDSLTGLPNRRALKDHIEMTTRQAPAVPHALLLIEIVNIADVAAYQGDDWADLFWPKLAREICDGENGLLSKFNDPRSFMFGDATLAVVIEGVSLEKSESAGLVLHLHEGLIAFFRSAEAGPVPHLKIGAANLEMVSHQNVASFLRHLSLALRRSENPVQIFPFSFAEKAARDEGVRQMLVRWIKNGKPPIFYQPKFEIHNRRMIGAEALLRAIDTHGQALSPYYVLEIAERHRLLVEFEWSTIEAVVRDLAELPGLDPDFHLAVNISASSFATACFADRVVALLQEMTVPAHRLSIEVTEMSRMPTTDSVQQNFDTLIAAGVRLALDDFGTGYAALTLLARFPFEEVKIDQWMTSRLDQARFRDAVVLAFESAERYGAKLVTEGIETEEQCRILMQMGIRFGQGYLYSPAVPLDRLLPRRAYA”, the protein production was “failed”.
